Laboratory results from patent publication US8461305B2, “L-fucose α1→6 specific lectin” (J-Oil Mills, Inc., priority 2008, dated 2013).

T1: Invertase (yeast) (Saccharomyces cerevisiae, UniProt P00724)
T1 sequence (P00724 20-532): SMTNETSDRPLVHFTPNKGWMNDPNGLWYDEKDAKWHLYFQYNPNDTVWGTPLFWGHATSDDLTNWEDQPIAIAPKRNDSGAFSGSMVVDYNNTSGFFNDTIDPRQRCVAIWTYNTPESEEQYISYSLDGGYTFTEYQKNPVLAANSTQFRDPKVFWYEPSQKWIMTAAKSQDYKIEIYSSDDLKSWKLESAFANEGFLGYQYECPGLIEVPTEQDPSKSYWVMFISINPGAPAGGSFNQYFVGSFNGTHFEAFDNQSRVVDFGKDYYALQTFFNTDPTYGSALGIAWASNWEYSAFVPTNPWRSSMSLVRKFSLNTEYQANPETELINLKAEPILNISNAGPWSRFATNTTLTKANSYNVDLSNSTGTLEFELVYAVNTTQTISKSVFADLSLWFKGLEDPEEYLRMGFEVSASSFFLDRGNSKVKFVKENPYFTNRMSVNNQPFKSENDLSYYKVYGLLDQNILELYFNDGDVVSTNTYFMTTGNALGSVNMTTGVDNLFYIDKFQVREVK


Legend:
Format in all cases: binding
[1] = molecular target: Blood serum albumin (bovine) (Bos taurus, UniProt P02769); assay: detection of glycoprotein by Western blotting with biotin-labeled lectin; design: key: ◯: Detected; X: Not detected; settings: (O) Blood serum albumin (bovine), No sugar chain; biotin-labeled lectin 2 μg/ml
Protocol: (§1) PTL of Example 1, SRL of Example 2, AAL of Comparison Example 1, AOL of Comparison Example 2, and LCA of Comparison Example 3 all subjected to biotin-labeling.
(§2) Lectin was measured and was dissolved in 0.1 M sodium hydrogen carbonate solution (5 mg/ml). Then, a biotinylation reagent was dissolved in dimethyl sulfoxide and the resultant solution was added to lectin solution to cause reaction therebetween. Then, the reactant was […] and lyophilized, thereby obtain biotin-labeled lectin.
(§3) The solution obtained by dissolving the glycoprotein sample in 10 mM phosphate buffered saline (pH 7.4, PBS) at 2 mg/ml was dispensed to a microtube by a unit of 18 μl. 6 μl of SDS process liquid (Sample Buffer Solution (2ME−); Wako Pure Chemical Industries, Ltd.) and 1.25 μl of 2-mercaptoethanol (Bio-Rad Laboratories, Inc.) was added to each dispensed fluid and the resultant mixture was boiled for 5 minutes.
(§4) The film was immersed in 10 mM Tris buffer solution including 0.8% NaCl added with 1% BSA (pH 7.4, 1% BSA+TBS) and was shaken at a room temperature for one hour. Then, the film was cleaned three times by 10 mM Tris buffer solution (pH 7.4, TBS) including 0.8% NaCl. Then, the film was immersed in biotin-labeled lectin solution (2 μg/ml) and was shaken at a room temperature for one hour. Then, the film was cleaned three times by TBS. Then, the film was immersed in the HRP label streptavidin solution at 1 μg/ml (Vector Laboratories) and was shaken at a room temperature for 30 minutes. After the film was cleaned three times by TBS, a POD immunostain set (Wako Pure Chemical Industries, Ltd.) was used to perform a staining test. The staining test is to detect glycoprotein by the western blotting using biotin-labeled lectin. FIG. 13 to FIG. 17 are photographs showing the following glycoproteins stained by PTL (FIG. 13), SRL (FIG. 14), AAL (FIG. 15), AOL (FIG. 16), or LCA (FIG. 17).
(§5) In FIG. 13 to FIG. 17, the lanes 0 to 6 correspond to the followings. Lane 1: thyroglobulin, lane 2: lactoferrin, lane 3: immune immunoglobulin, lane 4: transferrin, lane 5: α1-acidic glycoprotein, lane 6: invertase, lane 0: bovine serum albumin (control)

[2] = system: Immune-globulin G (human); assay: as above; design: key: ◯: Detected; X: Not detected; settings: (3) Immune-globulin G (human), N-linked glycan having α1→6 L-fucose; biotin-labeled lectin 2 μg/ml
Protocol: as §1, §2, §3, §4, §5

Invertase (yeast) = molecular target: T1, Invertase (yeast); assay: as above; design: key: ◯: Detected; X: Not detected; settings: (6) Invertase (yeast), High mannose-type sugar chain; biotin-labeled lectin 2 μg/ml
Protocol: as §1, §2, §3, §4, §5

Lactoferrin (bovine) = Lactoferrin (bovine) (Bos taurus, UniProt P24627); assay: as above; design: key: ◯: Detected; X: Not detected; settings: (2) Lactoferrin (bovine), N-linked glycan having α1→6 L-fucose; biotin-labeled lectin 2 μg/ml
Protocol: as §1, §2, §3, §4, §5

Thyroglobulin (pig) = Thyroglobulin (pig) (Sus scrofa, UniProt F1RRV3); assay: as above; design: key: ◯: Detected; X: Not detected; settings: (1) Thyroglobulin (pig), N-linked glycan having α1→6 L-fucose; biotin-labeled lectin 2 μg/ml
Protocol: as §1, §2, §3, §4, §5

Transferrin (human) = Transferrin (human) (Homo sapiens, UniProt P02787); assay: as above; design: key: ◯: Detected; X: Not detected; settings: (4) Transferrin (human), N-linked glycan not including α1→6 L-fucose; biotin-labeled lectin 2 μg/ml
Protocol: as §1, §2, §3, §4, §5

[3] = system: Immune-globulin G (human); assay: detection of glycoproteins by ELISA with biotin-labeled lectin; settings: (3) Immune-globulin G (human), N-linked glycan having α1→6 L-fucose; thyroglobulin value = 100%
Protocol: PTL of Example 1, SRL of Example 2, AAL of Comparison Example 1, AOL of Comparison Example 2, and LCA of Comparison Example 3 that were biotin-labeled were used to the detection of glycoproteins by the enzyme-linked immunosorbent assay (ELISA).
The glycoprotein and albumin as protein not including a sugar chain as a control were dissolved in 0.1 M carbonic acid buffer solution (pH 9.5) at 1 mg/ml. Then, the resultant solution was added to a microtiter plate (Nunc 439454) and was incubated at 4 degrees C. overnight. Then, the resultant solution was cleaned by 0.05% Tween/PBS three times. Thereafter, 1% BSA/PBS was added to wells and the solution was incubated at 37 degrees C. for one hour. Then, after the solution was cleaned by 0.05% Tween/PBS three times, biotin labeled-lectin appropriately diluted by 1% BSA/0.05% Tween/PBS was added to the wells and the solution was incubated at 37 degrees C. for one hour. After the solution was cleaned by 0.05% Tween/PBS three times, HRP labeled streptavidin solution diluted by 1% BSA/0.05% Tween/PBS was added to wells and the solution was incubated at 37 degrees C. for 30 minutes. After the solution was cleaned by 0.05% Tween/PBS three times, TMB Peroxidase substrate system (KPL) was added and the resultant solution was incubated at a room temperature for 10 minutes while light was being blocked.
The reaction was stopped by 1 M phosphoric acid. Then, a microplate reader (MPR-A4i, TOSOH CORPORATION) was used to measure the absorbance at 450 nm. Based on this value, reaction value ([absorbance at 450 nm of a well for which glycoprotein was solid-phased to the plate and reacted]−[absorbance at 450 nm of a well for which glycoprotein was not solid-phased to the plate and reacted] was calculated. Next, for each lectin, the interaction strength (relative value) to each glycoprotein was calculated based on an assumption that the glycoprotein (thyroglobulin) value was 100%. The calculation result is shown in Table 9 and FIG. 19 to FIG. 23.

Sequence of Thyroglobulin (pig) (F1RRV3 20-2692): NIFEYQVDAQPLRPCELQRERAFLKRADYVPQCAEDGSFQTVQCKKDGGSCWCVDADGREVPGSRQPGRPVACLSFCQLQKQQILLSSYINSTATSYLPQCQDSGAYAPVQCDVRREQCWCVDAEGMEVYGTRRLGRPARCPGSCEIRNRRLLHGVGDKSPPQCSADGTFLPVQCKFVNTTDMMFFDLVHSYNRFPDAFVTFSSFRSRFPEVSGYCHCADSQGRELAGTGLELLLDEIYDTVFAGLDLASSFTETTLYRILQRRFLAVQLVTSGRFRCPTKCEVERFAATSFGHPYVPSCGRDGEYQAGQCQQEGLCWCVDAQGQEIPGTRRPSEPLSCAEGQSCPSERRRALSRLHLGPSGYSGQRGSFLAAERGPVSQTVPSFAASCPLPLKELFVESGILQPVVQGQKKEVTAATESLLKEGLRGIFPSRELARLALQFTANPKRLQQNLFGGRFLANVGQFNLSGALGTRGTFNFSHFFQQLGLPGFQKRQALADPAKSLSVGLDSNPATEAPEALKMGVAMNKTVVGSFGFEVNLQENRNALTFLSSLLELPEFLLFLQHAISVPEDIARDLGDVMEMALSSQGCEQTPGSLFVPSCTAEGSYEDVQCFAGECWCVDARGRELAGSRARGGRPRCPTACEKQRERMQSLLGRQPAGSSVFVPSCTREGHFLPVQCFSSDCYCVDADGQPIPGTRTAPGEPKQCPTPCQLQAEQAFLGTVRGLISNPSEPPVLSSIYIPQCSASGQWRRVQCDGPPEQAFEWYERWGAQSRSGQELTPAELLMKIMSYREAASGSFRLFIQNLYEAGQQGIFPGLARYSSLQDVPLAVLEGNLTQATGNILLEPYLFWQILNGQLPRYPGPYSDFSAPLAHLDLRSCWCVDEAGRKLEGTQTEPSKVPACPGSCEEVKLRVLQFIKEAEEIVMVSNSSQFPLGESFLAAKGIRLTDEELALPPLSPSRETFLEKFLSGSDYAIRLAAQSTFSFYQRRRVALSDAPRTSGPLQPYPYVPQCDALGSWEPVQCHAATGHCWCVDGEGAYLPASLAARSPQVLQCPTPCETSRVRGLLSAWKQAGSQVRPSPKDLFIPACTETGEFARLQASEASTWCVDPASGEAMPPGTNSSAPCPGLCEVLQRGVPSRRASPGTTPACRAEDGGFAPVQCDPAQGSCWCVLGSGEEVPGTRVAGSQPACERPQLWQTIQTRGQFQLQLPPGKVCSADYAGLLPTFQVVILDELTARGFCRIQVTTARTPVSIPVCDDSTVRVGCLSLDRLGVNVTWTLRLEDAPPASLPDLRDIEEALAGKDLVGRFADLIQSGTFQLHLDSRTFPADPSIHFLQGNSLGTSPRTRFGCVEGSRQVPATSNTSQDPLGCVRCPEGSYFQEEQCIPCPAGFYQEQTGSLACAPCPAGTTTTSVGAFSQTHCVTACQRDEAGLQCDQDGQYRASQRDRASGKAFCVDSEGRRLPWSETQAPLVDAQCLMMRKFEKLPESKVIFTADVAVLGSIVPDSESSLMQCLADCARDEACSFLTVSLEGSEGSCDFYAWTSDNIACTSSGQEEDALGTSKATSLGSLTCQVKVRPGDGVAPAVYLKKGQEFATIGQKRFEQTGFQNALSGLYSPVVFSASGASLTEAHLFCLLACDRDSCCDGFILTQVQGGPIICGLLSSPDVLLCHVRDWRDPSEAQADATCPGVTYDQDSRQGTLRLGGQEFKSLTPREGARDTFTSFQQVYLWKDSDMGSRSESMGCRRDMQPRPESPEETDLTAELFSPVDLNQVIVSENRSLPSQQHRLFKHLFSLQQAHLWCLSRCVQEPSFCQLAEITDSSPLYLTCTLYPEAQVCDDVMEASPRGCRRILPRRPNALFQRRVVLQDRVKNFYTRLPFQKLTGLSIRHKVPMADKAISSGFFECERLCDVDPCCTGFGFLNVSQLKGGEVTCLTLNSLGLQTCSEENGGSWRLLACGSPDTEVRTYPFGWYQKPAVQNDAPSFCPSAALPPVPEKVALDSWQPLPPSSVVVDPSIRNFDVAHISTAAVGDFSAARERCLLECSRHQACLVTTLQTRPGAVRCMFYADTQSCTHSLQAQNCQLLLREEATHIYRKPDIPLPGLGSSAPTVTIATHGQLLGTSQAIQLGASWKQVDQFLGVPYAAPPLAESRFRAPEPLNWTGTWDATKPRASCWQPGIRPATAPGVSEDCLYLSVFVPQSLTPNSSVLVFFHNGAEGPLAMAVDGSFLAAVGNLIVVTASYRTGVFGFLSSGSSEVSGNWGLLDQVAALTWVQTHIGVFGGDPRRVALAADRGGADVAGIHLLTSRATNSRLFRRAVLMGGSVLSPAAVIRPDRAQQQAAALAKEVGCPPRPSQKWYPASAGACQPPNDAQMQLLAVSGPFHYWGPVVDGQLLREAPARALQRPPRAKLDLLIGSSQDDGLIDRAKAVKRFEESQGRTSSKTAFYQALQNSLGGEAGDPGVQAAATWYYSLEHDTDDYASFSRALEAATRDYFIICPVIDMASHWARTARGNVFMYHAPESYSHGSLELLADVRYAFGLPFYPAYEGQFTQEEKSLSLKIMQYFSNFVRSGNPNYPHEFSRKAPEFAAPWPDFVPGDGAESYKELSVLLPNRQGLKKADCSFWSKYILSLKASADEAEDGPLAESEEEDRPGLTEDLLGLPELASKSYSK
Sequence of Lactoferrin (bovine) (P24627 20-708): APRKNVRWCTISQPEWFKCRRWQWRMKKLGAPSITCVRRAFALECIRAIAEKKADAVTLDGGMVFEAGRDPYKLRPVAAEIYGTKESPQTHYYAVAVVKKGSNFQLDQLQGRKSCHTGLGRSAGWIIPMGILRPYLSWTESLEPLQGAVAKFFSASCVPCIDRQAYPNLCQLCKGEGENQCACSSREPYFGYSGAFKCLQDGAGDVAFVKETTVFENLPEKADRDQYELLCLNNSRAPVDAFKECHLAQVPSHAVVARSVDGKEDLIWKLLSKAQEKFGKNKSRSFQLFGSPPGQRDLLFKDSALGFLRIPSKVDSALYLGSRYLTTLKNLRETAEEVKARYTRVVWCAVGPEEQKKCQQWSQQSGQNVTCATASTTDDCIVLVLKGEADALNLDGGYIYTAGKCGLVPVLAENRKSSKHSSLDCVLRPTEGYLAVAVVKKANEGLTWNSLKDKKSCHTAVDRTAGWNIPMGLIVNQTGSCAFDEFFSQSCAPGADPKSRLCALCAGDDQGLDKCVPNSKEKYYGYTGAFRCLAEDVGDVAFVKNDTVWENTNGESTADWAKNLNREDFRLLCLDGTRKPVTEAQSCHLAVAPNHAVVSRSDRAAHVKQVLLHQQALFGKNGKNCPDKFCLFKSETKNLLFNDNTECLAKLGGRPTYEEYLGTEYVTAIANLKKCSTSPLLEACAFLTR
Sequence of Transferrin (human) (P02787 20-698): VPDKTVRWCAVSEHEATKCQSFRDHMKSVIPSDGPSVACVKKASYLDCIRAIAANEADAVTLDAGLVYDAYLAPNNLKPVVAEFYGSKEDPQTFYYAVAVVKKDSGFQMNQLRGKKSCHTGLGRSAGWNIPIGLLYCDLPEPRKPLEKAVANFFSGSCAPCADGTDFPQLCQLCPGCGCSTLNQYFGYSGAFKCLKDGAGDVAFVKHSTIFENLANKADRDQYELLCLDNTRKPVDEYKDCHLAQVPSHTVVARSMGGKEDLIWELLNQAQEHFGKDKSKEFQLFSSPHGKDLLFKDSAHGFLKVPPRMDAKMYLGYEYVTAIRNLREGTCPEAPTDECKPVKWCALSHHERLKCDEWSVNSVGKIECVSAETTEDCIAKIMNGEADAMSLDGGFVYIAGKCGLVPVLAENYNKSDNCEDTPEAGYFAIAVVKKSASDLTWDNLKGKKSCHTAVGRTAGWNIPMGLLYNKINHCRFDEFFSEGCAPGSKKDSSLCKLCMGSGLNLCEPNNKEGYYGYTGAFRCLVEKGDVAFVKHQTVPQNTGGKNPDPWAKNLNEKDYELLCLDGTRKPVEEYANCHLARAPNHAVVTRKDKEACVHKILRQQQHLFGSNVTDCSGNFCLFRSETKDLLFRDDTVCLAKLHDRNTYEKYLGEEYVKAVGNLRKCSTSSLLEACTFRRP
Sequence of Blood serum albumin (bovine) (P02769 25-607): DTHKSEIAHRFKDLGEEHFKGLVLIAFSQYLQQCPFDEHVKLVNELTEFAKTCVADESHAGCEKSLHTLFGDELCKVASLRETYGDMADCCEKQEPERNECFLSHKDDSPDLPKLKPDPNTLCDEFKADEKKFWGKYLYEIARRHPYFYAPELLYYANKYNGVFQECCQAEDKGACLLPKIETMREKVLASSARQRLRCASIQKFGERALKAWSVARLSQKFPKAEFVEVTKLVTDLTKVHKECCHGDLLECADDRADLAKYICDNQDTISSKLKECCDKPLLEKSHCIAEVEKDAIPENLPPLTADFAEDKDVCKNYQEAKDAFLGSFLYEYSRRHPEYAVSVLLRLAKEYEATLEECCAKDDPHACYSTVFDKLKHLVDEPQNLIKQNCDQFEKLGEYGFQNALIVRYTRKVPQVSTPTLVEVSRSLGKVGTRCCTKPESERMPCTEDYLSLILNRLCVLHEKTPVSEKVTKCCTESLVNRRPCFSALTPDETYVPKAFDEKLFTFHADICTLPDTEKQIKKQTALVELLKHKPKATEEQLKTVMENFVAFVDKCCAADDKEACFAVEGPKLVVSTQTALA

| Molecule | detection of glycoprotein by Western blotting [1] | detection of glycoprotein by Western blotting [2] | detection of glycoprotein by Western blotting (Invertase (yeast)) | detection of glycoprotein by Western blotting (Lactoferrin (bovine)) | detection of glycoprotein by Western blotting (Thyroglobulin (pig)) | detection of glycoprotein by Western blotting (Transferrin (human)) | interaction strength (relative value) by ELISA [3] |
| --- | --- | --- | --- | --- | --- | --- | --- |
| Aspergillus oryzae lectin [AOL, reference compound] | X | ◯ | X | ◯ | ◯ | X | Δ (Relative values of 50 to 10) |
| Pholiota terrestris lectin [PTL, novel L-fucose α1→6 specific lectin purified from the mushroom Pholiota terrestris] | X | ◯ | X | ◯ | ◯ | X | ⊚ (Relative values of 120 to 80) |
| Stropharia rugosoannulata lectin [SRL, novel L-fucose α1→6 specific lectin purified from the mushroom Stropharia rugosoannulata] | X | ◯ | X | ◯ | ◯ | X | ◯ (Relative values of 80 to 50) |
| Aleuria aurantia lectin (protein) PTEFLYTSKIAAISWAATGGRQQRVYFQDLNGKIREAQRGGDNPWTGGSSQNVIGEAKLFSPLAAVTWKSAQGIQIRVYCVNKDNILSEFVYDGSKWITGQLGSVGVKVGSNSKLAALQWGGSESAPPNIRVYYQKSNGSGSSIHEYVWSGKWTAGASFGSTVPGTGIGATAIGPGRLRIYYQATDNKIREHCWDSNSWYVGGFSASASAGVSIAAISWGSTPNIRVYWQKGREELYEAAYGGSWNTPGQIKDASRPTPSLPDTFIAANSSGNIDISVFFQASGVSLQQWQWISGKGWSIGAVVPTGTPAGW | X | ◯ | X | ◯ | ◯ | X | Δ (Relative values of 50 to 10) |
| Lens culinaris agglutinin (protein) chain 1: TETTSFSITKFSPDQKNLIFQGDGYTTKGKLTLTKAVKSTVGRALYSTPIHIWDRDTGNVANFVTSFTFVIDAPSSYNVADEFTFFIAPVDTKPQTGGGYLGVFNSKEYDKTSQTVAVEFDTFYNAAWDPSNKERHIGIDVNSIKSVNTKSWNLQNGERANVVIAFNAATNVLTVTLTYP chain 2: VTSYTLNEVVPLKDVVPEWVRIGFSATTGAEFAAHEVHSWSFHSELGGTSSS | X | ◯ | ◯ | ◯ | ◯ | X | ◯ (Relative values of 80 to 50) |
